Key:
[1] = biological target: T1, ubiquitin (whether His-tagged or not is not told for the experiment) (UniProt P0CG48 1-76); experiment: NMR titration; unlabelled SH3 domain titrated into 0.25 mM 15N-ubiquitin; 1H-15N HSQC chemical shift perturbation; 25 °C; 50 mM NaPi, 1 mM DTT, pH 6.0; details: both partners purified
T1 construct: ubiquitin, the 76-residue cut product (residues up to Gly76 are named); The methods list His-tagged and non His-tagged ubiquitin; It may carry the C-terminal His tag of m6; 15N- or 13C,15N-labelled in some NMR experiments; source: purchased from Spectra Isotopes or obtained as described in [12]; [18]

[2] = biological target: T1, ubiquitin (whether His-tagged or not is …); experiment: other fluorescence titration + ITC; 25 °C; ubiquitin stock titrated into the SH3 domain; ITC in 20 mM cacodylate, pH 6.0, about 50 µM SH3 in the cell and about 800 µM ubiquitin; intrinsic tryptophan fluorescence (excitation 298 nm), apparent affinities; model of a single set of identical sites; details: both partners purified

B1: CIN85 F322Y SH3-C (domain or fragment, UniProt Q96B97 270-328, looked up)
chain: DYCKVIFPYEAQNDDELTIKEGDIVTLINKDCIDVGWWEGELNGRRGVFPDNYVKLLPP
notes: CIN85 third SH3 domain (SH3-C) with F322Y; limits as the WT construct CIN85-SH3C(270-328)His6; Site-directed mutagenesis (QuikChange) of the WT construct m4; also called CIN85 SH3-C F322Y mutant; CIN85 F322Y SH3-C mutant; source: E. coli BL21/DE3, purified like the WT CIN85 SH3-C
- binding result [1]: binds

B2: CD2AP F324Y SH3-C (domain or fragment)
chain: AKEYCRTLFPYTGTNEDELTFREGEIIHLISKETGEAGWWKGELNGKEGVFPDNYAVQIS
notes: CD2AP third SH3 domain (SH3-C) with F324Y; Site-directed mutagenesis (QuikChange) of the WT construct m3; also called SH3-C F324Y mutant; F324Y CD2AP SH3-C; source: E. coli BL21/DE3, purified like the WT CD2AP SH3-C
- Kd [2]: 24 ± 3 µM

B3: CD2AP SH3-C T283A mutant (domain or fragment)
chain: AKEYCRTLFPYTGANEDELTFREGEIIHLISKETGEAGWWKGELNGKEGVFPDNFAVQIS
notes: CD2AP third SH3 domain (SH3-C) with T283A (RT loop); Mutant of m3; source: purchased from Topgene and expressed as the WT domains; purified
- binding result [1]: binds
